# Measured values as given in patent US20220401544A1.
# Key:
# [1] = target: N. meningitidis serogroup B factor H binding protein (FHbp, LP2086) variant A15 (Neisseria meningitidis serogroup B); experiment: MEASURE flow cytometry, median over MenB isolates expressing A15
# [2] = target: N. meningitidis serogroup B factor H binding protein (FHbp, LP2086) variant B16 (Neisseria meningitidis serogroup B) (UniProt E6MV22); experiment: MEASURE flow cytometry, median over MenB isolates expressing B16
# [3] = target: N. meningitidis serogroup B factor H binding protein (FHbp, LP2086) variant B24 (Neisseria meningitidis serogroup B) (UniProt E6MV22); experiment: MEASURE flow cytometry, median over MenB isolates expressing B24
# [4] = target: N. meningitidis serogroup B factor H binding protein (FHbp, LP2086) variant A06 (Neisseria meningitidis serogroup B); experiment: MEASURE flow cytometry, median over MenB isolates expressing A06
# [5] = target: N. meningitidis serogroup B factor H binding protein (FHbp, LP2086) variant A12 (Neisseria meningitidis serogroup B); experiment: MEASURE flow cytometry, median over MenB isolates expressing A12
# [6] = target: N. meningitidis serogroup B factor H binding protein (FHbp, LP2086) variant B15 (Neisseria meningitidis serogroup B) (UniProt E6MV22); experiment: MEASURE flow cytometry, median over MenB isolates expressing B15
# [7] = target: N. meningitidis serogroup B factor H binding protein (FHbp, LP2086) variant A29 (Neisseria meningitidis serogroup B); experiment: MEASURE flow cytometry, median over MenB isolates expressing A29
# [8] = target: N. meningitidis serogroup B factor H binding protein (fHBP) variant B10 (Neisseria meningitidis serogroup B)
# [9] = target: N. meningitidis serogroup B factor H binding protein (fHBP) variant A08 (Neisseria meningitidis serogroup B)
# [10] = target: N. meningitidis serogroup B factor H binding protein (fHBP) variant A40 (Neisseria meningitidis serogroup B)
# [11] = target: N. meningitidis serogroup B factor H binding protein (fHBP) variant A52 (Neisseria meningitidis serogroup B)
# [12] = target: N. meningitidis serogroup B factor H binding protein (fHBP) variant B91 (Neisseria meningitidis serogroup B)
# [13] = target: N. meningitidis serogroup B factor H binding protein (fHBP) variant A20 (Neisseria meningitidis serogroup B)
# [14] = target: N. meningitidis factor H binding protein (fHBP) variant A10 (Neisseria meningitidis serogroup B)
# [15] = target: N. meningitidis serogroup B factor H binding protein (FHbp, LP2086) variant B03 (Neisseria meningitidis serogroup B) (UniProt E6MV22); experiment: MEASURE flow cytometry, median over MenB isolates expressing B03
# [16] = target: N. meningitidis serogroup B factor H binding protein (FHbp, LP2086) variant A19 (Neisseria meningitidis serogroup B); experiment: MEASURE flow cytometry, median over MenB isolates expressing A19
# [17] = target: N. meningitidis serogroup B factor H binding protein (FHbp, LP2086) variant B44 (Neisseria meningitidis serogroup B); experiment: MEASURE flow cytometry, median over MenB isolates expressing B44
# [18] = target: N. meningitidis serogroup B factor H binding protein (FHbp, LP2086) variant A22 (Neisseria meningitidis serogroup B); experiment: MEASURE flow cytometry, median over MenB isolates expressing A22
# [19] = target: N. meningitidis serogroup B factor H binding protein (FHbp, LP2086) variant A56 (Neisseria meningitidis serogroup B); experiment: MEASURE flow cytometry, variant group A56 (only one strain)
# [20] = target: N. meningitidis serogroup B factor H binding protein (FHbp, LP2086) variant B09 (Neisseria meningitidis serogroup B) (UniProt E6MV22); experiment: MEASURE flow cytometry, median over MenB isolates expressing B09
# [21] = target: N. meningitidis serogroup B factor H binding protein (fHBP, LP2086) variant A28 (Neisseria meningitidis serogroup B)
# [22] = target: N. meningitidis serogroup B factor H binding protein (fHBP, LP2086) variant A02 (Neisseria meningitidis serogroup B)
# [23] = target: N. meningitidis serogroup B factor H binding protein (fHBP, LP2086) variant A76 (Neisseria meningitidis serogroup B)
# [24] = target: N. meningitidis serogroup B factor H binding protein (fHBP, LP2086) variant B07 (Neisseria meningitidis serogroup B) (UniProt E6MV22)
# [25] = target: N. meningitidis serogroup B factor H binding protein (fHBP, LP2086) variant B52 (Neisseria meningitidis serogroup B) (UniProt E6MV22)
# [26] = target: N. meningitidis serogroup B factor H binding protein (fHBP, LP2086) variant B13 (Neisseria meningitidis serogroup B) (UniProt E6MV22)
# [27] = target: N. meningitidis serogroup B factor H binding protein (fHBP, LP2086) variant B107 (Neisseria meningitidis serogroup B)
# [28] = target: N. meningitidis serogroup B factor H binding protein (fHBP, LP2086) variant B08 (Neisseria meningitidis serogroup B) (UniProt E6MV22)
# [29] = target: N. meningitidis serogroup B factor H binding protein (fHBP, LP2086) variant A42 (Neisseria meningitidis serogroup B)
# [30] = target: N. meningitidis serogroup B factor H binding protein (fHBP, LP2086) variant B05 (Neisseria meningitidis serogroup B) (UniProt E6MV22)
# [31] = target: N. meningitidis serogroup B factor H binding protein (fHBP, LP2086) variant A63 (Neisseria meningitidis serogroup B)
# [32] = target: N. meningitidis serogroup B factor H binding protein (FHbp, LP2086) variant A12 (Neisseria meningitidis serogroup B)
# [33] = target: N. meningitidis serogroup B factor H binding protein (FHbp, LP2086) variant A06 (Neisseria meningitidis serogroup B)
# [34] = target: N. meningitidis serogroup B factor H binding protein (FHbp, LP2086) variant B15 (Neisseria meningitidis serogroup B) (UniProt E6MV22)
# [35] = target: N. meningitidis serogroup B factor H binding protein (FHbp, LP2086) variant B44 (Neisseria meningitidis serogroup B)
# [36] = target: N. meningitidis serogroup B factor H binding protein (FHbp, LP2086) variant B24 (Neisseria meningitidis serogroup B) (UniProt E6MV22)
# [37] = target: N. meningitidis serogroup B factor H binding protein (FHbp, LP2086) variant A15 (Neisseria meningitidis serogroup B)
# [38] = target: N. meningitidis serogroup B factor H binding protein (FHbp, LP2086) variant B03 (Neisseria meningitidis serogroup B) (UniProt E6MV22)
# [39] = target: N. meningitidis serogroup B factor H binding protein (FHbp, LP2086) variant A56 (Neisseria meningitidis serogroup B)
# [40] = target: N. meningitidis serogroup B factor H binding protein (FHbp, LP2086) variant B09 (Neisseria meningitidis serogroup B) (UniProt E6MV22)
# [41] = target: N. meningitidis serogroup B factor H binding protein (FHbp, LP2086) variant A29 (Neisseria meningitidis serogroup B)
# [42] = target: N. meningitidis serogroup B factor H binding protein (FHbp, LP2086) variant A19 (Neisseria meningitidis serogroup B)
# [43] = target: N. meningitidis serogroup B factor H binding protein (FHbp, LP2086) variant A22 (Neisseria meningitidis serogroup B)
# [44] = target: N. meningitidis serogroup B factor H binding protein (FHbp, LP2086) variant A07 (Neisseria meningitidis serogroup B)
# [45] = target: N. meningitidis serogroup B factor H binding protein (FHbp, LP2086) variant B16 (Neisseria meningitidis serogroup B) (UniProt E6MV22)
substance,measurement,setting,value
monoclonal antibody MN86-994-11,FHbp Variant Group MEASURE MFI Median,[1],2900 MFI
same,FHbp Variant Group MEASURE MFI Median,[2],2000 MFI
same,FHbp Variant Group MEASURE MFI Median,[3],8460 MFI
same,FHbp Variant Group MEASURE MFI Median,[4],3090 MFI
same,FHbp Variant Group MEASURE MFI Median,[5],2470 MFI
same,FHbp Variant Group MEASURE MFI Median,[6],4820 MFI
same,FHbp Variant Group MEASURE MFI Median,[7],5990 MFI
same,fHBP Expression (MFI),[8],< 1000 MFI
same,fHBP Expression (MFI),[9],< 1000 MFI
same,fHBP Expression (MFI),[10],< 1000 MFI
same,fHBP Expression (MFI),[11],< 1000 MFI
same,fHBP Expression (MFI),[12],< 1000 MFI
same,fHBP Expression (MFI),[13],< 1000 MFI
same,fHBP Expression (MFI),[14],< 1000 MFI
same,FHbp Variant Group MEASURE MFI Median,[15],2940 MFI
same,FHbp Variant Group MEASURE MFI Median,[16],1760 MFI
same,FHbp Variant Group MEASURE MFI Median,[17],14800 MFI
same,FHbp Variant Group MEASURE MFI Median,[18],2500 MFI
same,FHbp Variant Group MEASURE MFI Median,[19],5000 MFI
same,FHbp Variant Group MEASURE MFI Median,[20],2280 MFI
same,fHBP Expression (MFI),[21],4190 MFI
same,fHBP Expression (MFI),[22],13200 MFI
same,fHBP Expression (MFI),[23],11300 MFI
same,fHBP Expression (MFI),[24],1350 MFI
same,fHBP Expression (MFI),[25],8730 MFI
same,fHBP Expression (MFI),[26],1850 MFI
same,fHBP Expression (MFI),[27],11100 MFI
same,fHBP Expression (MFI),[28],1560 MFI
same,fHBP Expression (MFI),[29],1610 MFI
same,fHBP Expression (MFI),[30],2920 MFI
same,fHBP Expression (MFI),[31],10800 MFI
same,Strain MEASURE MFI,[32],2540 MFI
same,Strain MEASURE MFI,[33],3370 MFI
same,Strain MEASURE MFI,[34],3780 MFI
same,Strain MEASURE MFI,[35],11300 MFI
same,Strain MEASURE MFI,[36],6970 MFI
same,Strain MEASURE MFI,[37],3000 MFI
same,Strain MEASURE MFI,[38],3980 MFI
same,Strain MEASURE MFI,[39],5000 MFI
same,Strain MEASURE MFI,[40],2090 MFI
same,Strain MEASURE MFI,[41],3840 MFI
same,Strain MEASURE MFI,[42],1930 MFI
same,Strain MEASURE MFI,[43],3130 MFI
same,FHbp Variant Group MEASURE MFI Median,[44],1100 MFI
same,Strain MEASURE MFI,[44],1380 MFI
same,Strain MEASURE MFI,[45],2350 MFI
